Target: MalFGK2 (Escherichia coli, UniProt P02916+P68183+P68187)
Assay type: biochemical

| Molecule | ATPase activity in the absence of MBP (MalFGK2 in nanodiscs) | basal ATPase activity (in detergent, absence of MBP) | stimulation of MBP-dependent ATPase activity by maltose (transporter reconstituted in nanodiscs) |
| --- | --- | --- | --- |
| MalFGK2: E. coli maltose ABC transporter complex: MalF, MalG and MalK dimer | did not exhibit any detectable ATPase activity | ~ 122 nmol/min/mg |  |
| OC[C@H]1O[C@H](O[C@H]2[C@H](O)[C@@H](O)C(O)O[C@@H]2CO)[C@H](O)[C@@H](O)[C@@H]1O (mixture of isomers) [maltose, reference compound] |  |  | about 10 fold |

Reference: article PMC4715599 (Molecular microbiology, 2015)
